Measurements reported in paper PMC8144621, “A two-hybrid system reveals previously uncharacterized protein–protein interactions within the Helicobacter pylori NIF iron–sulfur maturation system” (Scientific Reports, 2021).

How the values were obtained:
[1] = target: T1, ApbC-(His)6, purified recombinant (Helicobacter pylori strain 26695, UniProt O24999 1-368); experiment: cross-linking; purified proteins (15 µM) incubated alone or together for 60 min at 25 °C with 10 mM dimethyl suberimidate (DMS), no ATP; SDS 4-20% gradient PAGE, Coomassie; conditions: both partners purified
T1 construct: H. pylori strain 26695 ApbC/HP0207, whole native hp0207 (apbC) ORF without its stop codon, cloned NdeI-XhoI in pET21b (pET-ApbC); predicted mass with tag 41.1 kDa; The name ApbC-(His)6 and the cloning without stop codon in pET21b put the tag at the C-terminus; the methods of the cross-linking call the protein 'native ApbC'; also called hexahistidine tagged-ApbC^WT; source: E. coli BL21 RIL, …
T1 sequence (looked up): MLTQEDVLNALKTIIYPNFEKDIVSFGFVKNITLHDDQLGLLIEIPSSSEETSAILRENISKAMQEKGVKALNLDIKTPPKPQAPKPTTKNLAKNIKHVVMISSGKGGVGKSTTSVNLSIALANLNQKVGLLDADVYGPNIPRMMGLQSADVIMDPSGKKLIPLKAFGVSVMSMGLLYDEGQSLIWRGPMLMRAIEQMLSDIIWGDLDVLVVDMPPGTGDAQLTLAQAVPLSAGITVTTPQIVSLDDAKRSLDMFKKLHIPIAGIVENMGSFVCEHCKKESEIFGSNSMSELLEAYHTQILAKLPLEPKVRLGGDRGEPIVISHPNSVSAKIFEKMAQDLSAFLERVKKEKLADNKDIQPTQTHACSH

[2] = target: the molecule itself; experiment: as above

B1: Nfu (HP1492), purified recombinant (natural protein, Helicobacter pylori, UniProt O26025 1-89, looked up)
chain: MIEFSDEDLQKPVRIVIEKIRPYLLKDGGNIEVLGVKSMKIYVALEGACKTCSSSKITLKNVIERQLKMDIHPNLEVVCLENAKEFDKL
notes: H. pylori Nfu/HP1492; also called recombinant Nfu; HpNfu
binding result [1]: binds | stoichiometry N [2]: 2
